Data set [1] deals with T1, Cdc13p full-length (Saccharomyces cerevisiae, UniProt P32797 1-924).
T1 sequence: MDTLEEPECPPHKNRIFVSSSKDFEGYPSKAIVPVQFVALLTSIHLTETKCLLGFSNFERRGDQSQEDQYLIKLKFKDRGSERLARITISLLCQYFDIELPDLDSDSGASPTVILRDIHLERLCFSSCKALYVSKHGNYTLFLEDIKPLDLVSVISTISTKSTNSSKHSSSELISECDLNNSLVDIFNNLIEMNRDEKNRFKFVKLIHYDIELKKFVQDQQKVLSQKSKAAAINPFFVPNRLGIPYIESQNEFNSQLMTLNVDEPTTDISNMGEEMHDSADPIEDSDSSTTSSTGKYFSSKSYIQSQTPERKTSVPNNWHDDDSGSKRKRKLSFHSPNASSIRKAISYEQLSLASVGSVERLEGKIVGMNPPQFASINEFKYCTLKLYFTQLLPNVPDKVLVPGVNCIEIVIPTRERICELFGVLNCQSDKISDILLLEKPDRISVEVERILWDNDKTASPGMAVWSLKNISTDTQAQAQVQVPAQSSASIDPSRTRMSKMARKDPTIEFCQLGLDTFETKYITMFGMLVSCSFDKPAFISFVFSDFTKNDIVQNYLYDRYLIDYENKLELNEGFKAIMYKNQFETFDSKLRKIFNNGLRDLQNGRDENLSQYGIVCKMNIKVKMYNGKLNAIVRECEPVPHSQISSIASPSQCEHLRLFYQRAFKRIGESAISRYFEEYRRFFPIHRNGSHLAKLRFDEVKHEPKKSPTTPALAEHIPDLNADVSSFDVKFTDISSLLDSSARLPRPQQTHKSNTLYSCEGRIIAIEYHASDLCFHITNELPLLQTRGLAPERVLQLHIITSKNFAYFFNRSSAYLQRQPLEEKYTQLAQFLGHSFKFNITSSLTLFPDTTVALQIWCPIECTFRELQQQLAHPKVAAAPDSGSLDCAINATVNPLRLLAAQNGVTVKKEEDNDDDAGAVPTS
Kind of data set: EMSA. A general note: A gel shift assay detects complexes by their altered migration in electrophoresis.

For data set [2], the target named is T2, Cdc13(DBD) (Saccharomyces cerevisiae, UniProt P32797 497-694).
T2 sequence: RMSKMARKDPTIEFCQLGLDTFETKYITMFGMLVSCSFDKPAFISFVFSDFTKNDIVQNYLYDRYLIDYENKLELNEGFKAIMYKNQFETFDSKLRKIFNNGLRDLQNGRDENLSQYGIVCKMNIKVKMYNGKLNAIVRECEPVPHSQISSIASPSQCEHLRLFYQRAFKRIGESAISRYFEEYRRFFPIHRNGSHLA
In words: filter binding.

Data set [3] deals with T1, Cdc13p full-length. Kind of data set: footprinting.
The target in data set [4] is T2, Cdc13(DBD). Kind of data set: footprinting.
For data set [5], the target named is T1, Cdc13p full-length. Kind of data set: footprinting. This is another data set of the same source.
Data set [6] addresses T2, Cdc13(DBD). In words: footprinting. This is another data set of the same source.

As a reminder, the Kd is the constant that tells how readily two partners part at equilibrium.

Read-outs that look alike come from different tables or passages of the source.

GTGTCTGTCTG (ssDNA) [TEL*]: the figures for the Kd with Cdc13p full-length [1] and in the data set with Cdc13(DBD) [2] were 11 ± 3.8 nM and 620 ± 120 nM, respectively.
In the same order, the values of GTGTCTGTCTGAAAAAAAAAA (ssDNA) [TEL*-a10] are 7.4 ± 2.4 nM and 380 ± 57 nM.
Regarding GTGTCTGTCTGTGTGGG (ssDNA) [TEL*-TGTGGG], the binding result with Cdc13p full-length [3] and in the data set with Cdc13(DBD) [4] was “binds” throughout.
Turning to GTGTGGGTGTG (ssDNA) [TEL], the values for the Kd in the data set with Cdc13p full-length [1] and with Cdc13(DBD) [2] were 0.43 ± 0.17 nM and 2.8 ± 0.6 nM, respectively.
On to GTGTCTGTCTGGTGGG (ssDNA) [TEL*-GTGGG], for which the binding result with Cdc13p full-length [5] and in the data set with Cdc13(DBD) [6] was “binds” throughout.
Consider GTGTCTGTCTGGGG (ssDNA) [TEL*-GGG], for which the Kd is 2.2 ± 0.7 nM in the data set with Cdc13p full-length [1] and 33 ± 5.7 nM with Cdc13(DBD) [2].
Consider GTGTCTGTCTGGG (ssDNA) [TEL*-GG], for which the Kd with Cdc13p full-length [1] turned out to be 0.81 ± 0.03 nM.
The same measure, in the same setting: under GTGTCTGTCTGGTGTGGG (ssDNA) [TEL*-GTGTGGG] stands 0.81 ± 0.15 nM.

These data come from paper PMC2632905.
